Reference: US20230265201A1 (published 2023)
Residue numbers refer to the chain shown, from its start.

B1: 57B6 Fab (Fab, V domains shown)
VH: QLQLVESGGGLVQPGGSLRLSCAASGFSFSHYAMSWVRQAPGKGLEWVSGDNTYDGGTRYQDSVKGRFTISRDNGKNTLYLQMNSLKPEDTAVYYCAKDTGRGIMGEYGMDYWGKGTLVTVSS
VL: QTVVTQEPSLSVSPGGTVTLTCGLKSGSVTSSNYPAWYQQTPGQAPRLLIYNTNSRHSGVPSRFSGSISGNKAALTITGAQPEDEADYYCALYMGSGSANAMFGGGTHLTVLG
notes: Llama-derived Fab from phage display; MYC tag at C-terminus of Fd
B2: 9E1 Fab (Fab, V domains shown)
VH: EVQLQESGGGVVQPGGSLRLSCAASGFTFDDYAMSWVRQAPGKGLEWVSSIYMYDSSTYYADSVKGRFTISTDNAKNTVYLQMNSLKSEDTAVYYCAKDINRSYGSSWSHFGPIFSSWGQGTQVTVSS
VL: QAVVTQEPSLSVSPGGTVTLTCGLTSGSVTSSNYPDWYQQTPGQAPRLLIYNTNSRHSGVPSRFSGSISGNKAALTITGAQPEDEADYYCNLYMGSGGSKVFGGGTKLTVLG
notes: as for B1
B3: 1C2 Fab (Fab, V domains shown)
VH: ELQVVESGGGLVQPGGSLRLSCAASGFTLSNYWMHWVRQAPRKGLEWVSTISTDNSRTYYADSVKGRFTISRDHAKNTLILQMNSLKSEDTAVYYCIRGSDYEHWGQGTQVTVSS
VL: QTVVTQEPSLSVSPGGTVTLTCGLSSGSVTTTNYPGWFQQTPGQAPRTLIYSTSSRHSGVPSRFSGSISGNKAALTITGAQPEDEADYYCALEEIGSYTYMFGGGTHLTVLG
notes: as for B1
B4: 9G2 Fab (Fab, V domains shown)
VH: QVQLVESGGGLMQPGGSLRLSCAASGFTFSSSAMSWVRQAPGKGLEWVSSIYSDSSYTYYADSVKSRFTISTDNAKNTLYLQMNSLKPDDTAVYYCAGSSDYEGSFASWGQGTQVTVSS
VL: QSVVTQPPSLSASPGSSVRLTCTLSSGNSVGNYDISWYQQKAGSPPRYLLYYYSDSVKHQGSGVPSRFSGSSDASANAGLLLISGLQPEDEADYYCSAYKSGSHVFGGGTKLTVLG
notes: as for B1
B5: 9B2 Fab (Fab, V domains shown)
VH: B4 VH with V2L, L4V, S31G, D54H, S56M, G98A, S105L, A107V
VL: B4 VL with S2A, V4L, S25N, G27A, N32S, V57L, K58S, S72T, K100N, S101R
notes: as for B1
B6: 53A2 mAb (human IgG1, HEK293) (antibody, V domains shown)
VH: EVQLVESGGGLVQPGGSLRLSCAASGFTFSVYYMNWVRQAPGKGLEWVSDINNEGGTTYYADSVKGRFTISRDNSKNSLYLQMNSLRAEDTAVYYCARDAGYSNHVPIFDSWGQGTLVTVSS
VL: QAVVTQEPSFSVSPGGTVTLTCGLKSGSVTSDNFPTWYQQTPGQAPRLLIYNTNTRHSGVPDRFSGSILGNKAALTITGAQADDEAEYFCALFISNPSVEFGGGTQLTVLG
B7: 41D12 mAb (human IgG1, HEK293) (antibody, V domains shown)
VH: B6 VH
VL: B6 VL with F10L, S11T
B8: 9D1 Fab (Fab, V domains shown)
VH: B6 VH with S75A, S78T, Y80T, R87K, A88P, V93L, A97V, L117Q, T119I, S121A
VL: QAVVTQEPSLSVSPGGTVTLTCGLSSGSVTSSHYPGWYQQTPGQAPRLLIFNTNSRHSGVPSRFSGSISGNKAALTITGAQPEDEADYYCALLNIDDGSTMFGGGTHLTVLG
notes: as for B1
B9: 53H1 mAb (human IgG1, HEK293) (antibody, V domains shown)
VH: B6 VH
VL: B6 VL with A2T
B10: 9D1 chimeric llama-human mAb (antibody, V domains shown)
VH: B6 VH with S75A, S78T, Y80T, R87K, A88P, V93L, A97V, L117Q, T119I, S121A
VL: B8 VL
notes: also called mAb 9D1
B11: 35G2 mAb (human IgG1, HEK293) (antibody, V domains shown)
VH: B6 VH with S75A, S78T, R87K, A88P
VL: B6 VL with A2T, D32T, T55S, E87D
B12: 40F1 mAb (human IgG1, HEK293) (antibody, V domains shown)
VH: B6 VH with T57A, L117Q
VL: B6 VL
B13: 4D2 Fab (Fab, V domains shown)
VH: QVQLQESGPGLVKPSQTLSLACTVSGGSITTSYYYWSWIRQPPGKGLEWMGAIGSRGSTYYSPSLKTRTSISRDTSKNQFTLQLSSVTPEDTAVYYCARVTGEITYNSGSYYYTLNLFDYWGQGTQVTVSS
VL: QSVLTQPPSLSASPGSSVRLTCTLSSGNSVGNYDISWYQQKAGSPPRYLLYYYSDSYKNQGSGVPSRFSGSKDPSANAGLLLISGLQAEDEADYYCSVSNSGTYKPVFGGGSKLTVLG
notes: as for B1
B14: 5F4 Fab (Fab, V domains shown)
VH: EVQVQESGGGLVHPGGSLKLSCAASGFTFDTYAMSWVRQAPGKGLEWVSAISWSGGETFYAESMKGRFTISRNNAKNTLYLQMNSLKSEDTAVYYCARGMGLAEGLTDWGQGTQVTVSS
VL: QAVVTHPPSLSASPGSSVRLTCTLISGDNIGGYDISWYQQKTGSPPRYLLYYYSDSYKHQSSGVPSRFSGSKDASANAGLLLISGLQSEDEADYYCSAYKSGSYKAPVFGGGTHLTVLG
notes: as for B1

Assays:
[1] = target: T1, recombinant human CD70 (Flag-TNC-CD70) (human, UniProt P32970 39-193); assay: CD27-CD70 inhibition ELISA, human Flag-TNC-CD70
T1 construct: extracellular domain; also called recombinant CD70; human Flag-TNC-CD70; not shown: Flag tag and TNC trimerisation domain
T1 sequence (looked up): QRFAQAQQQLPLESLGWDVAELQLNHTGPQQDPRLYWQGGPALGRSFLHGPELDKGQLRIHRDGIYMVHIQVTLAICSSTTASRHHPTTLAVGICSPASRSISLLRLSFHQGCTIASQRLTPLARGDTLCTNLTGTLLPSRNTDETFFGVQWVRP

[2] = target: T1, recombinant human CD70 (Flag-TNC-CD70); assay: blocking ELISA of Example 19: CD27 Fc chimera on anti-Flag-captured Flag-TNC-CD70
[3] = target: T2, rhesus recombinant CD70 (FLAG-TNC-rhesus CD70) (rhesus macaque (Macaca mulatta), UniProt F7GPA5 174-316); assay: Biacore, Fab over immobilised rhesus CD70
T2 construct: also called rhesus Flag-TNC-CD70; Rhesus monkey; not shown: Flag tag and TNC trimerisation domain
T2 sequence: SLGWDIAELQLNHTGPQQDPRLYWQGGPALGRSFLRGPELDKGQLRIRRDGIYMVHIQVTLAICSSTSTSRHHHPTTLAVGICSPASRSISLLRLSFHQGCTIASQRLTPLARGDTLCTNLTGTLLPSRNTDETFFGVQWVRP

[4] = target: T3, human CD70 on the surface of cells (human, UniProt P32970 1-193); assay: cell-based or functional assay
T3 sequence (looked up): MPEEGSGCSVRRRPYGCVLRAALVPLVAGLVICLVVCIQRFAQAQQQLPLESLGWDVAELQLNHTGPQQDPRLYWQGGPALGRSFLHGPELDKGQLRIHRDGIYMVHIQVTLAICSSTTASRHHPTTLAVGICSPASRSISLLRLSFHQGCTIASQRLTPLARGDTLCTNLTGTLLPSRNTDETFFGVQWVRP

[5] = target: T1, recombinant human CD70 (Flag-TNC-CD70); assay: inhibition ELISA: CD27-Fc binding to anti-Flag-captured Flag-TNC-CD70
Description: From selected phage transfected into TG1, individual colonies were picked randomly for growth in 96 well plates. After IPTG induction according to standard protocols periplasmic fractions (peris) containing Fabs were prepared. […] In this assay, Flag-TNC-CD70 is captured by an anti-Flag mAb and binding of CD27-Fc is detected via a biotinylated anti-CD27 mAb and strep-HRP in the absence or presence of CD70 Fabs (FIGS. 2 and 3) or CD70 mAbs (FIG. 4). In FIG. 2B it can be seen that 27B3, which has an identical VH as 9D1, but contains a somewhat different light chain, seems to block binding of CD27 to CD70 more efficiently, which was in line with the better off rate of this Fab as measured on Biacore (data not shown). Table 3 indicates the blocking potency (expressed as IC50) for the various llama-human chimeric mAbs tested in the CD70 inhibition ELISA. […] FIG. 3 is a composite of an experiment testing llama CD70 Fabs for blocking activity (in the inhibition ELISA, see white bars) and for CD70 binding (binding ELISA, black bars). For the binding ELISA, Flag-TNC-CD70 is captured by an anti-Flag mAb and binding of the Fabs is detected using an anti-myc-HRP mAb, which recognizes the MYC tag fused to the C-terminus of the Fd fragment. […]

| Molecule | koff [3] | Raji co-culture assay IC50 relative to 27B3 [4] | further results |
| --- | --- | --- | --- |
| MDX1411 mAb (antibody) |  |  | IC50 [1]: 0.044 µg/mL; IC50 [2]: 5.5 µg/mL |
| B1 | 4e-05 s⁻¹ |  |  |
| B2 | 0.0002 s⁻¹ |  |  |
| B3 | 0.00032 s⁻¹ |  |  |
| B4 | 0.00018 s⁻¹ |  |  |
| B5 | 0.00061 s⁻¹ |  |  |
| B6 |  | 0.8 fold relative to 27B3 |  |
| B7 |  | 1.2 fold relative to 27B3 |  |
| B8 | 0.0002 s⁻¹ |  |  |
| B9 |  | 1.6 fold relative to 27B3 |  |
| B10 |  |  | fold less potent than 27B3 mAb [5]: 3 fold |
| B11 |  | 1.4 fold relative to 27B3 |  |
| B12 |  | 1.8 fold relative to 27B3 |  |
| B13 | 0.00029 s⁻¹ |  |  |
| B14 | 0.0005 s⁻¹ |  |  |
